A450 data for 30 molecules are collected here from patent US20210395381A1 (OSSIANIX, published 2021).

One assay has as its target T1, recombinant mouse TfR-1 (mouse, UniProt Q62351 89-763).
T1 construct: Recombinant protein coated at 1 ug/ml in the phage ELISA; also called mTfR1; mouse transferrin receptor-1
The experiment in a line: phage ELISA. (In general: ELISA stands for enzyme-linked immunosorbent assay.)

The target in another assay is T2, recombinant human TfR-1 (human, UniProt P02786 89-760).
T2 construct: Recombinant protein coated at 1 ug/ml in the phage ELISA; also called hTfR1; human transferrin receptor-1
In words: phage ELISA.

T2 sequence (P02786 89-760 limits assumed): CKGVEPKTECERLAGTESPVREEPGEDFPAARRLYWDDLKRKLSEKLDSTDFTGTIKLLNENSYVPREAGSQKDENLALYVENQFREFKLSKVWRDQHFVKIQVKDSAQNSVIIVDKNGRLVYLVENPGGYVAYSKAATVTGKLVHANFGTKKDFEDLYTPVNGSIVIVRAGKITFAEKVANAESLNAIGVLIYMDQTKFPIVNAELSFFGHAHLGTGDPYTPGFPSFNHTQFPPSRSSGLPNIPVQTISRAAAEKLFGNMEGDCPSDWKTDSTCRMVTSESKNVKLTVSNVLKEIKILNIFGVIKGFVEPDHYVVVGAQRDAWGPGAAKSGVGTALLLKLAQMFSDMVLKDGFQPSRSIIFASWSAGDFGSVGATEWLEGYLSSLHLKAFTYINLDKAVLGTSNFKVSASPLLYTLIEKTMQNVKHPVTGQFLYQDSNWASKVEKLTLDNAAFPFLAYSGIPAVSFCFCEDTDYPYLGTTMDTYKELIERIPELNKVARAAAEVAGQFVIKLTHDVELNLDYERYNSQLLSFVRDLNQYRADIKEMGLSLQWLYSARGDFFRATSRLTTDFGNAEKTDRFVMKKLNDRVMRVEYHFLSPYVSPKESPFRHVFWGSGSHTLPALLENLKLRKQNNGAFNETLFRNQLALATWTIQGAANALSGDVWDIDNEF
T1 sequence (Q62351 89-763 limits assumed): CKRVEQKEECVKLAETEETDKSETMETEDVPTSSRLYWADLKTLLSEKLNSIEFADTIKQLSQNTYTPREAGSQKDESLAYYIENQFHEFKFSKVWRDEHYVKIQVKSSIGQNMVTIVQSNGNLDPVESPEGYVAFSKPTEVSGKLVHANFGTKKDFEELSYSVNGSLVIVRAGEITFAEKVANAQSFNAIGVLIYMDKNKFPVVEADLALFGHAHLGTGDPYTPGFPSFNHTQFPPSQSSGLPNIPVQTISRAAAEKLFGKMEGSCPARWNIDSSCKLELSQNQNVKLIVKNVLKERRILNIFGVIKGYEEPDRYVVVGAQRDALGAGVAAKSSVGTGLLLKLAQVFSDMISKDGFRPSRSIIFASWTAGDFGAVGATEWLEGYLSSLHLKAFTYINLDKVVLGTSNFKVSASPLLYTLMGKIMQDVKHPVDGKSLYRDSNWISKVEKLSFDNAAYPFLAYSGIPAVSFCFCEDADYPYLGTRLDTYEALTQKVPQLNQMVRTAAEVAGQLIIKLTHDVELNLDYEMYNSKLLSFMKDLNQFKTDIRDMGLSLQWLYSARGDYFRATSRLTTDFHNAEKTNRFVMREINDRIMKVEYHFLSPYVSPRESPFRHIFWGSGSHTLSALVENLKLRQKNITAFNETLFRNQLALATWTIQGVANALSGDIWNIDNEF

B1: Clone 8.1 (VNAR)
VNAR: ARVDQTPQTITKETGESLTINCVLRDSNCALPSTYWYRKKSGSTNEESISKGGRYVETVNSGSKSFSLRINDLTVEDSGTYRCKVLRLLSSILRGCNYRKHDVYGDGTAVTVNA
notes: VNAR on phage; Clone 8 framework
For B1, the A450 with recombinant mouse TfR-1 worked out at 0.312 A450; with recombinant human TfR-1, 0.371 A450.

B2: Clone 8.3 (VNAR)
VNAR: ARVDQTPQTITKETGESLTINCVLRDSNCALPSTYWYRKKSGSTNEESISKGGRYVETVNSGSKSFSLRINDLTVEDSGTYRCKVVRFLSSILRGCNYRKHDVYGDGTAVTVNA
notes: as for B1
Turning to B2, the A450 was 0.194 A450 in the assay with recombinant mouse TfR-1 and 0.27 A450 with recombinant human TfR-1.

B3: Clone 8.97 (VNAR)
VNAR: ARVDQTPQTITKETGESLTINCVLRDSNCALPSTYWYRKKSGSTNEESISKGGRYVETVNSGSKSFSLRINDLTVEDSGTYRCKVIAQLSSILRGCNYNIDDVYGDGTAVTVNA
notes: as for B1
With B3, in the assay with recombinant human TfR-1, the A450 turned out to be 0.057 A450.

B4: Clone 8.27 (VNAR)
VNAR: ARVDQTPQTITKETGESLTINCVLRDSNCALPSTYWYRKKSGSTNEESISKGGRYVETVNSGSKSFSLRINDLTVEDSGTYRCKVQGMLSSILRGCNYRKHDVYGDGTAVTVNA
notes: as for B1
Regarding B4, the A450 with recombinant mouse TfR-1 was found to be 0.08 A450; with recombinant human TfR-1 it was 0.079 A450.

B5: Clone 8.26 (VNAR)
VNAR: ARVDQTPQTITKETGESLTINCVLRDSNCALPSTYWYRKKSGSTNEESISKGGRYVETVNSGSKSFSLRINDLTVEDSGTYRCKVIASAFSILRGCNYRKHDVYGDGTAVTVNA
notes: as for B1
On to B5, for which the results for the A450 with recombinant mouse TfR-1 and with recombinant human TfR-1 were 0.082 A450 and 0.087 A450, respectively.

B6: Clone 8.16 (VNAR)
VNAR: ARVDQTPQTITKETGESLTINCVLRDSNCALPSTYWYRKKSGSTNEESISKGGRYVETVNSGSKSFSLRINDLTVEDSGTYRCKVIAKLFSILCGCNYRKHDVYGDGTAVTVNA
notes: as for B1
As for B6, the A450 stood at 0.092 A450 with recombinant mouse TfR-1 and 0.138 A450 with recombinant human TfR-1.

B7: Clone 8.28 (VNAR)
VNAR: ARVDQTPQTITKETGESLTINCVLRDSNCALPSTYWYRKKSGSTNEESISKGGRYVETVNSGSKSFSLRINDLTVEDSGTYRCKVAFILSSILRGCNYRKHDVYGDGTAVTVNA
notes: as for B1
For B7, the A450 was determined as 0.077 A450 with recombinant mouse TfR-1 and 0.085 A450 with recombinant human TfR-1.

B8: Clone 8.19 (VNAR)
VNAR: ARVDQTPQTITKETGESLTINCVLRDSNCALPSTYWYRKKSGSTNEESISKGGRYVETVNSGSKSFSLRINDLTVEDSGTYRCKVQSQLSIVLRGCNYRKHDVYGDGTAVTVNA
notes: as for B1
B8: the A450 stood at 0.088 A450 in the assay with recombinant mouse TfR-1 and 0.078 A450 in the assay with recombinant human TfR-1.

B9: Clone 8.13 (VNAR)
VNAR: ARVDQTPQTITKETGESLTINCVLRDSNCALPSTYWYRKKSGSTNEESISKGGRYVETVNSGSKSFSLRINDLTVEDSGTYRCKVIAQLALALRGCNYRKHDVYGDGTAVTVNA
notes: as for B1
Take B9: the A450 with recombinant mouse TfR-1 amounted to 0.096 A450; with recombinant human TfR-1, 0.075 A450.

B10: Clone 8.11 (VNAR)
VNAR: ARVDQTPQTITKETGESLTINCVLRDSNCALPSTYWYRKKSGSTNEESISKGGRYVETVNSGSKSFSLRINDLTVEDSGTYRCKVIAQLSSIYPGCNYRKHDVYGDGTAVTVNA
notes: as for B1
As to B10, the A450 with recombinant mouse TfR-1 came to 0.101 A450; in the assay with recombinant human TfR-1, 0.066 A450.

B11: Clone 8.21 (VNAR)
VNAR: ARVDQTPQTITKETGESLTINCVLRDSNCALPSTYWYRKKSGSTNEESISKGGRYVETVNSGSKSFSLRINDLTVEDSGTYRCKVIAHLSSFRDGCNYRKHDVYGDGTAVTVNA
notes: as for B1
Regarding B11, the A450 came to 0.086 A450 with recombinant mouse TfR-1 and 0.058 A450 with recombinant human TfR-1.

B12: Clone 8.10 (VNAR)
VNAR: ARVDQTPQTITKETGESLTINCVLRDSNCALPSTYWYRKKSGSTNEESISKGGRYVETVNSGSKSFSLRINDLTVEDSGTYRCKVIAQLAIELRGCNYRKHDVYGDGTAVTVNA
notes: as for B1
For the molecule B12, the A450 worked out at 0.101 A450 with recombinant mouse TfR-1 and 0.072 A450 in the assay with recombinant human TfR-1.

B13: Clone 8.23 (VNAR)
VNAR: ARVDQTPQTITKETGESLTINCVLRDSNCALPSTYWYRKKSGSTNEESISKGGRYVETVNSGSKSFSLRINDLTVEDSGTYRCKVIAQLPKQLRGCNYRKHDVYGDGTAVTVNA
notes: as for B1
As to B13, the A450 with recombinant mouse TfR-1 was found to be 0.085 A450; with recombinant human TfR-1 it was 0.055 A450.

B14: Clone 8.25 (VNAR)
VNAR: ARVDQTPQTITKETGESLTINCVLRDSNCALPSTYWYRKKSGSTNEESISKGGRYVETVNSGSKSFSLRINDLTVEDSGTYRCKVIAQLSSMELGCNYRKHDVYGDGTAVTVNA
notes: as for B1
Turning to B14, the A450 came out at 0.084 A450 with recombinant mouse TfR-1 and 0.06 A450 in the assay with recombinant human TfR-1.

B15: Clone 8.18 (VNAR)
VNAR: ARVDQTPQTITKETGESLTINCVLRDSNCALPSTYWYRKKSGSTNEESISKGGRYVETVNSGSKSFSLRINDLTVEDSGTYRCKVIAQLSSKYVGCNYRKHDVYGDGTAVTVNA
notes: as for B1
On to B15, for which the figures for the A450 with recombinant mouse TfR-1 and in the assay with recombinant human TfR-1 were 0.09 A450 and 0.06 A450, respectively.

B16: Clone 8.4 (VNAR)
VNAR: ARVDQTPQTITKETGESLTINCVLRDSNCALPSTYWYRKKSGSTNEESISKGGRYVETVNSGSKSFSLRINDLTVEDSGTYRCKVKLWLSSILRGCNYRKHDVYGDGTAVTVNA
notes: as for B1
B16: the A450 with recombinant mouse TfR-1 was 0.188 A450; with recombinant human TfR-1 it was 0.173 A450.

B17: Clone 8.22 (VNAR)
VNAR: ARVDQTPQTITKETGESLTINCVLRDSNCALPSTYWYRKKSGSTNEESISKGGRYVETVNSGSKSFSLRINDLTVEDSGTYRCKVIAQQKSILRGCNYHKHDVYGDGTAVTVNA
notes: as for B1
On to B17, for which the figures for the A450 with recombinant mouse TfR-1 and with recombinant human TfR-1 were 0.086 A450 and 0.066 A450, respectively.

B18: Clone 8.5 (VNAR)
VNAR: ARVDQTPQTITKETGESLTINCVLRDSNCALPSTYWYRKKSGSTNEESISKGGRYVETVNSGSKSFSLRINDLTVEDSGTYRCKVIAQLGWWLRGCNYRKHDVYGDGTAVTVNA
notes: as for B1
In the case of B18, the A450 was 0.172 A450 with recombinant mouse TfR-1 and 0.152 A450 with recombinant human TfR-1.

B19: Clone 8.8 (VNAR)
VNAR: ARVDQTPQTITKETGESLTINCVLRDSNCALPSTYWYRKKSGSTNEESISKGGRYVETVNSGSKSFSLRINDLTVEDSGTYRCKVFAPLSSILRGCNYRKHDVYGDGTAVTVNA
notes: as for B1
Regarding B19, the A450 with recombinant mouse TfR-1 is 0.118 A450; with recombinant human TfR-1 it was 0.103 A450.

B20: Clone 8.12 (VNAR)
VNAR: ARVDQTPQTITKETGESLTINCVLRDSNCALPSTYWYRKKSGSTNEESISKGGRYVETVNSGSKSFSLRINDLTVEDSGTYRCKVRWRLSSILRGCNYRKHDVYGDGTAVTVNA
notes: as for B1
For B20, the A450 with recombinant mouse TfR-1 amounted to 0.1 A450; in the assay with recombinant human TfR-1, 0.108 A450.

B21: Clone 8.15 (VNAR)
VNAR: ARVDQTPQTITKETGESLTINCVLRDSNCALPSTYWYRKKSGSTNEESISKGGRYVETVNSGSKSFSLRINDLTVEDSGTYRCKVMWNLSSILRGCNYRKHDVYGDGTAVTVNA
notes: as for B1
Regarding B21, the A450 in the assay with recombinant mouse TfR-1 and in the assay with recombinant human TfR-1 was 0.095 A450 throughout.

B22: Clone 8.6 (VNAR)
VNAR: ARVDQTPQTITKETGESLTINCVLRDSNCALPSTYWYRKKSGSTNEESISKGGRYVETVNSGSKSFSLRINDLTVEDSGTYRCKVIAQWWSILRGCNYRKHDVYGDGTAVTVNA
notes: as for B1
In the case of B22, the A450 in the assay with recombinant mouse TfR-1 was found to be 0.164 A450; with recombinant human TfR-1 it was 0.199 A450.

B23: Clone 8.9 (VNAR)
VNAR: ARVDQTPQTITKETGESLTINCVLRDSNCALPSTYWYRKKSGSTNEESISKGGRYVETVNSGSKSFSLRINDLTVEDSGTYRCKVWNMLSSILRGCNYRKHDVYGDGTAVTVNA
notes: as for B1
Turning to B23, the A450 with recombinant mouse TfR-1 came to 0.108 A450; with recombinant human TfR-1 it was 0.119 A450.

B24: Clone 8.2 (VNAR)
VNAR: ARVDQTPQTITKETGESLTINCVLRDSNCALPSTYWYRKKSGSTNEESISKGGRYVETVNSGSKSFSLRINDLTVEDSGTYRCKVLFNLSSILRGCNYRKHDVYGDGTAVTVNA
notes: as for B1
With B24, the values for the A450 with recombinant mouse TfR-1 and with recombinant human TfR-1 were 0.242 A450 and 0.315 A450, respectively.

B25: Clone 8.14 (VNAR)
VNAR: ARVDQTPQTITKETGESLTINCVLRDSNCALPSTYWYRKKSGSTNEESISKGGRYVETVNSGSKSFSLRINDLTVEDSGTYRCKVIAQLSSILGYCYYRKHDVYGDGTAVTVNA
notes: as for B1
For the molecule B25, the A450 in the assay with recombinant mouse TfR-1 is 0.095 A450; with recombinant human TfR-1, 0.067 A450.

B26: Clone 8.7 (VNAR)
VNAR: ARVDQTPQTITKETGESLTINCVLRDSNCALPSTYWYRKKSGSTNEESISKGGRYVETVNSGSKSFSLRINDLTVEDSGTYRCKVIAQLSSILKACKYRKHDVYGDGTAVTVNA
notes: as for B1
With B26, the results for the A450 with recombinant mouse TfR-1 and in the assay with recombinant human TfR-1 were 0.123 A450 and 0.087 A450, respectively.

B27: Clone 8.20 (VNAR)
VNAR: ARVDQTPQTITKETGESLTINCVLRDSNCALPSTYWYRKKSGSTNEESISKGGRYVETVNSGSKSFSLRINDLTVEDSGTYRCKVIAQLSSILRGCLDKKHDVYGDGTAVTVNA
notes: as for B1
With B27, the A450 with recombinant mouse TfR-1 was determined as 0.087 A450; in the assay with recombinant human TfR-1, 0.084 A450.

B28: Clone 8.17 (VNAR)
VNAR: ARVDQTPQTITKETGESLTINCVLRDSNCALPSTYWYRKKSGSTNEESISKGGRYVETVNSGSKSFSLRINDLTVEDSGTYRCKVIAYRKSIVRGCNYRKHDVYGDGTAVTVNA
notes: as for B1
Take B28: the A450 with recombinant human TfR-1 stood at 0.091 A450.

B29: Clone 8.24 (VNAR)
VNAR: ARVDQTPQTITKETGESLTINCVLRDSNCALPSTYWYRKKSGSTNEESISKGGRYVETVNSGSKSFSLRINDLTVEDSGTYRCKVIAQLSSILRGCNYFFPDVYGDGTAVTVNA
notes: as for B1
As for B29, the A450 stood at 0.084 A450 with recombinant mouse TfR-1 and 0.093 A450 with recombinant human TfR-1.

B30: Clone 8.137 (VNAR)
VNAR: ARVDQTPQTITKETGESLTINCVLRDSNCALPSTYWYRKKSGSTNEESISKGGRYVETVNSGSKSFSLRINDLTVEDSGTYRCKVIAQLSSILRGCNYFGKDVYGDGTAVTVNA
notes: as for B1
Take B30: the A450 with recombinant human TfR-1 was determined as 0.076 A450.
